The values below come from paper PMC3510454, “Elba, a novel developmentally regulated chromatin boundary factor is a hetero-tripartite DNA binding complex”.

For data set [1], the target named is T1, Elba1;Elba2;Elba3 (Drosophila melanogaster?;Drosophila …, UniProt Q9VR17;Q9VQD6;Q9VR19 1-363;1-381;1-379, ||).
T1 sequence 1: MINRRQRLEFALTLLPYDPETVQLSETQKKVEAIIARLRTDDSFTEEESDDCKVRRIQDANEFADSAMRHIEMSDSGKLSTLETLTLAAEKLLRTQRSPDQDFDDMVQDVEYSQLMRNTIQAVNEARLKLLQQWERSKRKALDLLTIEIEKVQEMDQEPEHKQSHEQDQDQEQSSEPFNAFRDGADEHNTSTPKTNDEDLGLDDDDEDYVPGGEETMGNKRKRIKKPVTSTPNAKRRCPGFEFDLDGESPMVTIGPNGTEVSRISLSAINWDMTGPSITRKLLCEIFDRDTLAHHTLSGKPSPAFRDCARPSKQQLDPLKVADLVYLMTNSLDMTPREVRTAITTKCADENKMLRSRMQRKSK
T1 sequence 2: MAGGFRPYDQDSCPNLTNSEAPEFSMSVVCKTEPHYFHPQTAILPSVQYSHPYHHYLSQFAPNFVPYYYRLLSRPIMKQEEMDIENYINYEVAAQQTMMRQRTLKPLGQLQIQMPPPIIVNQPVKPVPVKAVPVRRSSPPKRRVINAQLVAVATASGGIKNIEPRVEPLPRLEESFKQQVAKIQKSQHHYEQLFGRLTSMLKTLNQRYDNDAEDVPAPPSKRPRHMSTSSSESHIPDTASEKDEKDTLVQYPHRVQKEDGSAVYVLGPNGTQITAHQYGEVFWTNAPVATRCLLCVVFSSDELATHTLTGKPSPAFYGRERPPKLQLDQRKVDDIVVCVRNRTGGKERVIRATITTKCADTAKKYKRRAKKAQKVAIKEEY
T1 sequence 3: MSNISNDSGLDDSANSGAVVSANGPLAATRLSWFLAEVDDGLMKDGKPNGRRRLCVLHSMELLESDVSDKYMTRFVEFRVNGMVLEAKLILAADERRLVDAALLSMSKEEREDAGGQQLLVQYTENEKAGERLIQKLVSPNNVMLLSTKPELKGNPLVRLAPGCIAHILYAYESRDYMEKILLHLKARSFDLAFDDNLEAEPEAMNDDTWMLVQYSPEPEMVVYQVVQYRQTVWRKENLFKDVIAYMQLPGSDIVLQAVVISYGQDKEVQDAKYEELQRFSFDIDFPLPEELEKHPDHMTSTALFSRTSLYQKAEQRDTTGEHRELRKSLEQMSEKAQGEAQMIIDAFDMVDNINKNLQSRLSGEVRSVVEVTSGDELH
Briefly: competition; 100-fold excess; EMSA: ~0.1 M KCl, 12.5-250 ug/ml poly(dI-dC):poly(dI-dC), 1/2 hr at room temperature, 4% acrylamide gel, otherwise as Aoki et al. 2008; affinity beads: HBB (10). Conditions: protein: ivt;ivt;ivt; tags: none;none;none; copies: 1;1;1; label: none. In general terms: A gel shift assay detects complexes by their altered migration in electrophoresis.

In data set [2] the target is T2, GST-Elba1F;GST-Elba2F;FLAG-Elba3F (Drosophila melanogaster?;Drosophila …, UniProt Q9VR17;Q9VQD6;Q9VR19 1-363;1-381;1-379, ||).
T2 sequence 1: T1 sequence 1
T2 sequence 2: T1 sequence 2
T2 sequence 3: T1 sequence 3
In words: EMSA; supershift by Elba3; EMSA: ~0.1 M KCl, 12.5-250 ug/ml poly(dI-dC):poly(dI-dC), 1/2 hr at room temperature, 4% acrylamide gel, otherwise as Aoki et al. 2008; affinity beads: HBB (10). Conditions: protein: ivt;ivt;ivt; tags: N-terminal FLAG and GST;N-terminal FLAG and GST;N-terminal FLAG; copies: 1;1;1.

Data set [3] concerns the target T3, GST-Elba1 BEN;GST-Elba2 BEN (Drosophila melanogaster?;Drosophila …, UniProt Q9VR17;Q9VQD6 255-363;268-381, |).
T3 sequence 1: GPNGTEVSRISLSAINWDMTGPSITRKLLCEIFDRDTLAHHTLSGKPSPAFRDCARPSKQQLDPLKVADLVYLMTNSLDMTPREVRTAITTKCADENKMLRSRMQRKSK
T3 sequence 2: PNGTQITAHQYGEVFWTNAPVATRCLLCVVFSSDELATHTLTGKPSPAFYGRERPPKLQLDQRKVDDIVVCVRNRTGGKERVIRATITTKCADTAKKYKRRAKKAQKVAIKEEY
In words: EMSA; EMSA: ~0.1 M KCl, 12.5-250 ug/ml poly(dI-dC):poly(dI-dC), 1/2 hr at room temperature, 4% acrylamide gel, otherwise as Aoki et al. 2008; affinity beads: HBB (10). Conditions: protein: ivt;ivt; tags: N-terminal FLAG and GST;N-terminal FLAG and GST; copies: 1;1.

Data set [4] addresses T1, Elba1;Elba2;Elba3. Described as above. Conditions: protein: ivt;ivt;ivt; tags: none;none;none; copies: 1;1;1.
Data set [5] deals with T4, FLAG-Elba1F;FLAG-Elba2F;FLAG-Elba3F (Drosophila melanogaster?;Drosophila …, UniProt Q9VR17;Q9VQD6;Q9VR19 1-363;1-381;1-379, ||).
T4 sequence 1: T1 sequence 1
T4 sequence 2: T1 sequence 2
T4 sequence 3: T1 sequence 3
The description is as above. Conditions: protein: ivt;ivt;ivt; tags: N-terminal FLAG;N-terminal FLAG;N-terminal FLAG; copies: 1;1;1.

For a further data set, the target named is T5, GST-Elba1F;GST-Elba2F (Drosophila melanogaster?;Drosophila …, UniProt Q9VR17;Q9VQD6 1-363;1-381, |).
T5 sequence 1: T1 sequence 1
T5 sequence 2: T1 sequence 2
Briefly: EMSA; co-translated; EMSA: ~0.1 M KCl, 12.5-250 ug/ml poly(dI-dC):poly(dI-dC), 1/2 hr at room temperature, 4% acrylamide gel, otherwise as Aoki et al. 2008; affinity beads: HBB (10). Conditions: protein: ivt;ivt; tags: N-terminal FLAG and GST;N-terminal FLAG and GST; copies: 1;1.

B1: M6 oligo (dsDNA)
DNA 1: TGCAGCGCCCAATAAGCAAATGTACGC
DNA 2: GCGTACATTTGCTTATTGGGCGCTGCA
modifications: 3-bp substitution
Turning to B1, the binding result in the data set with Elba1;Elba2;Elba3 [1] is “binds”.

B2: Elba probe 27 bp (WT) (dsDNA)
DNA 1: TGCAGCGCCCAATAAGCAAATGGCAGC
DNA 2: GCTGCCATTTGCTTATTGGGCGCTGCA
Regarding B2, the binding result is given as “binds” in data set [2]; “no binding” in data set [3]; “binds” in the data set with Elba1;Elba2;Elba3 [4]; “binds” in data set [5]; “binds” with GST-Elba1F;GST-Elba2F.
